Data set [1] has as its target reduced and carboxymethylated (S54G, P55N)-RNase T1 (UniProt P00651).
For data set [2], the target named is T1, reduced and carboxymethylated (S54G, P55N)-RNase T1, P00651.
T1 chain: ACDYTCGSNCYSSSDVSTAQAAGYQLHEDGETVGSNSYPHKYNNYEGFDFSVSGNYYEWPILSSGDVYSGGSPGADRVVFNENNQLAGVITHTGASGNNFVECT

As to hFKBP12, the Specificity constant kcat/KM (RCM-T1 refolding assay) in data set [1] is 14000 M⁻¹ s⁻¹.

B1: SlpA (protein)
chain: SESVQSNSAVLVHFTLKLDDGTTAESTRNNGKPALFRLGDASLSEGLEQHLLGLKVGDKTTFSLEPDAAFGVPSPDLIQYFSRREFMDAGEPEIGAIMLFTAMDGSEMPGVIREINGDSITVDFNHPLAGQTVHFDIEVLEIDPALEAHHHHHH
Take B1: in data set [2], the Specificity constant kcat/KM (RCM-T1 refolding assay) is below 1000 M⁻¹ s⁻¹.

B2: SlyD* ΔIF loop (protein)
chain: MKVAKDLVVSLAYQVRTEDGVLVDESPVSAPLDYLHGHGSLISGLETALEGHEVGDKFDVAVGANDAYGATGHPGIIPPHATLKFNVEVVAIREATEEELAHGHVHGAHDHHHDHDHDHHHHHH
For B2, in data set [2], the Specificity constant kcat/KM (RCM-T1 refolding assay) stood at 500 M⁻¹ s⁻¹ and the “specificity constant relative to SlyD*” value is “amounts to only 0.07% of SlyD*”.

B3: hFKBP12-IF4 (protein)
chain: GVQVETISPGDGRTFPKRGQTAVVHYTGMLEDGKKFDSSRDRNKPFKFMLGKQEVIRGWEEGVAQMSVGQRAKLTISPDYAYGVPSPDLIQYFSRREFMDAGEPEIGAIMLFTAMDGSEMPGVIREINGDSITVDFNHPLAGQTLVFDVELLKLEHHHHHH
For B3, in data set [2], the Specificity constant kcat/KM (RCM-T1 refolding assay) came to 850000 M⁻¹ s⁻¹ and the “specificity constant (kcat/KM)” value came out at 800.000 M⁻¹ s⁻¹.

B4: SlyD* (SlyD 1-165) (protein)
chain: MKVAKDLVVSLAYQVRTEDGVLVDESPVSAPLDYLHGHGSLISGLETALEGHEVGDKFDVAVGANDAYGQYDENLVQRVPKDVFMGVDELQVGMRFLAETDQGPVPVEITAVEDDHVVVDGNHMLAGQNLKFNVEVVAIREATEEELAHGHVHGAHDHHHDHDHDHHHHHH
With B4, in data set [2], the Specificity constant kcat/KM (RCM-T1 refolding assay) worked out at 680000 M⁻¹ s⁻¹ and the “concentration at which refolding of RCM-T1 is twofold accelerated” value is listed as “In the presence of as low as 2 nM SlyD* refolding of RCM-T1 is already twofold accelerated”.

B5: TcFKBP18 (protein)
chain: MKVEAGDYVLFHYVGRFEDGEVFDTSYEEIARENGILVEEREYGPMWVRIGVGEIIPGLDEAIIGMEAGEKKTVTVPPEKAYGMPNPELVISVPREEFTKAGLEPQEGLYVMTDSGIAKIVSVGESEVSLDFNHPLAGKTLVFEVEVIEVKKAEEDSEA
The molecule B5 registered a Specificity constant kcat/KM (RCM-T1 refolding assay) in data set [2] of 600000 M⁻¹ s⁻¹.

B6: hFKBP12-IF1 (C22A) (protein)
chain: GVQVETISPGDGRTFPKRGQTAVVHYTGMLEDGKKFDSSRDRNKPFKFMLGKQEVIRGWEEGVAQMSVGQRAKLTISPDYAYGQYDENLVQRVPKDVFMGVDELQVGMRFLAETDQGPVPVEITAVEDDHVVVDGNHMLAGQNLVFDVELLKLEHHHHHH
With B6, in data set [2], the Specificity constant kcat/KM (RCM-T1 refolding assay) came to 2.5e+06 M⁻¹ s⁻¹, the “concentration sufficient to double the folding rate of RCM-T1” value is recorded as “Less than 1 nM FKBP12-IF1 are sufficient to double the folding rate of RCM-T1” and the specificity constant result is given as “higher than 2.5×10^6 M^-1s^-1”.

B7: hFKBP12-IF5 (protein)
chain: GVQVETISPGDGRTFPKRGQTCVVHYTGMLEDGKKFDSSRDRNKPFKFMLGKQEVIRGWEEGVAQMSVGQRAKLTISPDYAYGMPNPELVISVPREEFTKAGLEPQEGLYVMTDSGIAKIVSVGESEVSLDFNHPLAGKTLVFDVELLKLEHHHHHH
In data set [2], B7 displayed a Specificity constant kcat/KM (RCM-T1 refolding assay) of 660000 M⁻¹ s⁻¹.

Source of the values: US20090042251.
